This is an account of results in publication PMC4899734, “Selective inhibition of apicoplast tryptophanyl-tRNA synthetase causes delayed death in Plasmodium falciparum” (Scientific Reports, 2016).

The target of data set [1] is T1, apicoplast tryptophanyl-tRNA synthetase (TrpRS^api, PF3D7_1251700) (Plasmodium falciparum, UniProt A0A144A140).
T1 sequence (A0A144A140 61-559): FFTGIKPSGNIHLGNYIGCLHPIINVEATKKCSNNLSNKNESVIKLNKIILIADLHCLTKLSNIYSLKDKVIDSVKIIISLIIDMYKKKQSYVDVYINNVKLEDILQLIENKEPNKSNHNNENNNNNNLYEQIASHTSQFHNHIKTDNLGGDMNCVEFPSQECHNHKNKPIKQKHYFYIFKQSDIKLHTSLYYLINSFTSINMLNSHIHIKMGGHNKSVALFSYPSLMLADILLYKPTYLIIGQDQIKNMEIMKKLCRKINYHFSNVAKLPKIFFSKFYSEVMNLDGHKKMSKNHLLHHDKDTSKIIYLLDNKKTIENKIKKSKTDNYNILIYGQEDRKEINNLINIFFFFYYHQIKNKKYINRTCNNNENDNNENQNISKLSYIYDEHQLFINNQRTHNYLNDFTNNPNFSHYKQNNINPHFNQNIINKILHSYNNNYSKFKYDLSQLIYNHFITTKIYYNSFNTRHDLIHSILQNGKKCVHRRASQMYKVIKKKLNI
The data set can be described thus: radiolabelled tryptophan tRNA aminoacylation assay with purified recombinant enzyme, […] indolmycin. The class given is biochemical.

Substrate in data set [2]: N[C@@H](Cc1c[nH]c2ccccc12)C(=O)O
The data set can be described thus: steady-state aminoacylation kinetics with purified enzyme (apparent Km). The note with it: ATP, Mg2+. The class given is biochemical, Plasmodium falciparum.

Substrate in data set [3]: Nc1ncnc2c1ncn2[C@@H]1O[C@H](COP(=O)(O)OP(=O)(O)OP(=O)(O)O)[C@@H](O)[C@H]1O
The description is as above. It counts as biochemical, Plasmodium falciparum. To be noted: Mg2+.

For `CNC1=NC(=O)[C@H]([C@H](C)c2c[nH]c3ccccc23)O1` [indolmycin], in data set [1], the “radiolabelled tryptophan tRNA aminoacylation assay with purified recombinant enz” value was “at higher concentrations of indolmycin, tRNA^trp formation by TrpRS^api was reduced to background levels”.

B1: apicoplast tryptophanyl-tRNA synthetase (TrpRS^api, PF3D7_1251700) (Plasmodium falciparum 3D7) (protein)
chain: T1 sequence (A0A144A140 61-559)
What is called Km is the concentration of substrate that gives half-maximal velocity. As usually defined, the Vmax is the top rate of the reaction or transport when substrate is in excess. On to B1, for which, in data set [2], the Michaelis-Menten constant (Km) was determined as 5.3 ± 1.2 µM and the Vmax was 0.029 µmol/min.

B2: cytosolic tryptophanyl-tRNA synthetase (TrpRS^cyt, PF3D7_1336900) (Plasmodium falciparum 3D7) (protein)
chain: KDVTPWDVNINNEEGINYNKLIKEFGCSKITENHIKRIEKLTNSKAHHFIRRGIFFSHRDLDFLLNYYEQHKCFYIYTGRGPSSLSMHLGHLIPFYFCKYLQEAFNVPLVIQLSDDEKYLFNQNYSLEYINTLTNENVKDIISVGLNPELTFIFKNTEYAGYLYPTVLSIHKKTTLNQSMNVFGFNHSDNIGKISYPSFQIAPCFSQCFPNFLGKNIPCLVPQGIDQDPYFRLSRDIAVKMALHKPVVVHSVFMPGLQGVNSKMSSTKKKKDDNGKSNSTFDHNNSVIFLTDTPEQIKNKINKYAFSGGGTTIQEHREKGGNLDKDISYQYLRYLLEDDNKLNEIGEKYKKGEMLSGEIKKILIDVLTELVLKHQEKKKSLTDEEISYFFDPNKPSLQKFKNM
On to B2, for which, in data set [3], the Michaelis-Menten constant (Km) amounted to 622 ± 0.3 µM and the maximal velocity (Vmax) is 0.292 µmol/min. For the same molecule, in data set [2], the Michaelis constant (Km) amounted to 15.6 ± 0.6 µM and the Vmax was 0.077 µmol/min.
